B1: PCDHGA10 (parent)
chain: FHELQMQVTASDSGDPPLSSNVSL

Variants of: B1
Test: protein stability index of a GFP-peptide fusion (GPS, HEK-293T) (PSI 1-6); higher = more stable
Conditions: c terminus: a fixed tail appended
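Further: lentivirally expressed fusions sorted by FACS into six bins by GFP to DsRed ratio, PSI derived from sequencing read proportions per bin multiplied by bin number.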

In order of rising protein stability index:
1. FHELQFQVTASDSGDPPLSSNVSL [M6F]  1.4
2. FHELQMQVTASASGDPPLSSNVSL [D12A]  1.46
3. FHELQMQVTRSDSGDPPLSSNVSL [A10R]  1.48
4. FHELQMQVTAFDSGDPPLSSNVSL [S11F]  1.55
5. FHSLQMQVTASDSGDPPLSSNVSL [E3S]  1.59
6. FHELQIQVTASDSGDPPLSSNVSL [M6I]  1.65
7. FHELQMQVTASDSGSPPLSSNVSL [D15S]  1.67
8. FHELQMQVTASDSGDWPLSSNVSL [P16W]  1.69
9. FHELQMPVTASDSGDPPLSSNVSL [Q7P]  1.71
10. FHELQMQVTCSDSGDPPLSSNVSL [A10C]  1.74
11. FHELQMSVTASDSGDPPLSSNVSL [Q7S]  1.74
12. FHELQMQVTASDTGDPPLSSNVSL [S13T]  1.75
13. FHHLQMQVTASDSGDPPLSSNVSL [E3H]  1.75
14. FHELQMQVTASDSGDPRLSSNVSL [P17R]  1.79
15. FHELQMQVTASDSGDPPLSSNFSL [V22F]  1.8
16. FHELIMQVTASDSGDPPLSSNVSL [Q5I]  1.82
17. FHELQMQVTASDSFDPPLSSNVSL [G14F]  1.82
18. FHTLQMQVTASDSGDPPLSSNVSL [E3T]  1.82
19. FHELQMQVYASDSGDPPLSSNVSL [T9Y]  1.86
20. FHELQMQVTASTSGDPPLSSNVSL [D12T]  1.86
21. FHELQMQVTASPSGDPPLSSNVSL [D12P]  1.89
22. FHELQMQVTASDSGDPPLSGNVSL [S20G]  1.91
23. FHELQMQVTASDSGIPPLSSNVSL [D15I]  1.93
24. FHELQMQVTASDSGDPPLYSNVSL [S19Y]  1.94
25. FHELQMQVTARDSGDPPLSSNVSL [S11R]  1.96
26. FHELQMQVTASDSGDPFLSSNVSL [P17F]  1.97
27. FHELQMQVLASDSGDPPLSSNVSL [T9L]  1.99
28. FHELQMQVTANDSGDPPLSSNVSL [S11N]  2.03
29. FHELQMAVTASDSGDPPLSSNVSL [Q7A]  2.04
30. FHELQMQVTASDSGDSPLSSNVSL [P16S]  2.04
31. FHELQMQVTASDSGDPPLSSNWSL [V22W]  2.05
32. FHELQMQVTASDSGDQPLSSNVSL [P16Q]  2.08
33. FHELQMQVTASDSWDPPLSSNVSL [G14W]  2.11
34. FHELQMQVTASDLGDPPLSSNVSL [S13L]  2.13
35. FHELQMQVTASDSGDPGLSSNVSL [P17G]  2.14
36. FHELQMQVTASDSGDPPLSMNVSL [S20M]  2.2
37. FHELQMQVTAADSGDPPLSSNVSL [S11A]  2.22
38. FHELQMQVTGSDSGDPPLSSNVSL [A10G]  2.24
39. FHELAMQVTASDSGDPPLSSNVSL [Q5A]  2.26
40. FHEIQMQVTASDSGDPPLSSNVSL [L4I]  2.28
41. FHELQMQVTASDSGDPDLSSNVSL [P17D]  2.28
42. FHELQMQVTASDSGDPALSSNVSL [P17A]  2.29
43. FHELQMQVTASDSTDPPLSSNVSL [G14T]  2.31
44. FYELQMQVTASDSGDPPLSSNVSL [H2Y]  2.31
45. FHELQMQVTASDSADPPLSSNVSL [G14A]  2.33
46. FHELQMTVTASDSGDPPLSSNVSL [Q7T]  2.33
47. FHELQMQVTASDSSDPPLSSNVSL [G14S]  2.34
48. FHELQMQVTASDSGDPPLQSNVSL [S19Q]  2.36
49. FHELQMQVTASDSGDPPLMSNVSL [S19M]  2.36
50. FHELQMQVTISDSGDPPLSSNVSL [A10I]  2.38
51. FHELQMQVTASDSGDPPLNSNVSL [S19N]  2.39
52. FHELQMQVTATDSGDPPLSSNVSL [S11T]  2.4
53. FHELQMQVHASDSGDPPLSSNVSL [T9H]  2.43
54. FHELQMQVTASDSGDPPLWSNVSL [S19W]  2.45
55. FHELQMQVTASDSGNPPLSSNVSL [D15N]  2.48
56. FHELQMQVTASDSGDPPASSNVSL [L18A]  2.5
57. FHELQMQVTASDSGDPPLSSNVSG [L24G]  2.52
58. FHELQMQVTASDSGDPPESSNVSL [L18E]  2.53
59. FHELQMQVTASYSGDPPLSSNVSL [D12Y]  2.54
60. FHELQMQVTASDSGDPPLSSNYSL [V22Y]  2.56
61. FHELQVQVTASDSGDPPLSSNVSL [M6V]  2.56
62. FHELQMQCTASDSGDPPLSSNVSL [V8C]  2.56
63. FHELQLQVTASDSGDPPLSSNVSL [M6L]  2.58
64. FHELQMQVTASDSGDPILSSNVSL [P17I]  2.65
65. FHELQMYVTASDSGDPPLSSNVSL [Q7Y]  2.69
66. FHELQMQVTASDSGDPPLSSNGSL [V22G]  2.72
67. FHELQMQVTASDSGDPPLSSNVSV [L24V]  2.72
68. FHELQMQVTAQDSGDPPLSSNVSL [S11Q]  2.72
69. FHELQMQVQASDSGDPPLSSNVSL [T9Q]  2.73
70. FHEKQMQVTASDSGDPPLSSNVSL [L4K]  2.73
71. FHELQMQVTASDSGDPPLSENVSL [S20E]  2.75
72. FHELQMGVTASDSGDPPLSSNVSL [Q7G]  2.78
73. FHELQMQVTASDSGDPPLSSNKSL [V22K]  2.84
74. FHELQMQVTASDSGDPPLSSNVSH [L24H]  2.84
75. FHELQMQVTASDSGDPPLSSNVSP [L24P]  2.9
76. FHELQMQVTASNSGDPPLSSNVSL [D12N]  2.92
77. FHELQMQVWASDSGDPPLSSNVSL [T9W]  2.95
78. FHELQMQVTASDSGDPPLESNVSL [S19E]  3.04
79. FHELQMQSTASDSGDPPLSSNVSL [V8S]  3.07
80. FHELQMQVTASDSPDPPLSSNVSL [G14P]  3.16
81. FHELQMQRTASDSGDPPLSSNVSL [V8R]  3.2
82. FHELFMQVTASDSGDPPLSSNVSL [Q5F]  3.27
83. FHELQMQVTASDSGDPPLSSNVSA [L24A]  3.29
84. FHELQMQVTASDSGDPPSSSNVSL [L18S]  3.29
85. FQELQMQVTASDSGDPPLSSNVSL [H2Q]  3.43
86. FHELQMQVTASDSGDPPLSVNVSL [S20V]  3.46
87. FHELQMQQTASDSGDPPLSSNVSL [V8Q]  3.51
88. FHELQQQVTASDSGDPPLSSNVSL [M6Q]  3.54
89. FHELWMQVTASDSGDPPLSSNVSL [Q5W]  3.59
90. FGELQMQVTASDSGDPPLSSNVSL [H2G]  3.94
91. FPELQMQVTASDSGDPPLSSNVSL [H2P]  3.99
92. FEELQMQVTASDSGDPPLSSNVSL [H2E]  4.28
93. FNELQMQVTASDSGDPPLSSNVSL [H2N]  4.47
94. EHELQMQVTASDSGDPPLSSNVSL [F1E]  5.2

Reference: the supplement of paper PMC10567573
